Laboratory results as given in patent publication US11504441B2, “Radiolabeled compounds targeting the prostate-specific membrane antigen” (PROVINCIAL HEALTH SERVICES AUTHORITY, priority 2019, dated 2022).

Tests used:
[1] = system: PSMA-expressing LNCaP cancer xenografts
Procedure: (§1) LNCaP cell line was obtained from ATCC (LNCaP clone FGC, CRL-1740). […] Cells were cultured in PRM I 1640 medium supplemented with 10% FBS, penicillin (100 U/mL) and streptomycin (100 μg/mL) at 37° C. in a humidified incubator containing 5% CO2. Cells grown to 80-90% confluence were then washed with sterile phosphate-buffered saline (1× PBS pH 7.4) and collected by trypsinization. The collected cells concentration was counted with a Hausser Scientific (Horsham, Pa.) Hemacytometer.
(§2) Imaging and biodistribution experiments were performed using NODSCID 1 L2RγKO male mice. Mice were anesthetized by inhalation with 2% isoflurane in oxygen, and implanted subcutaneously with 1×10^7 LNCaP cells behind left shoulder. Mice were imaged or used in biodistribution studies when the tumor grew up to reach 5-8 mm in diameter during 5-6 weeks.
(§3) PET imaging experiments were conducted using Siemens Inveon micro PET/CT scanner. Each tumor bearing mouse was injected 6-8 MBq of Ga-68 labeled tracer through the tail vein under anesthesia (2% isoflurane in oxygen). The mice were allowed to recover and roam freely in their cage. After 50 min, the mice were sedated again with 2% isoflurane in oxygen inhalation and positioned in the scanner. A 10-min CT scan was conducted first for localization and attenuation correction after segmentation for reconstructing the PET images. Then, a 10-min static PET imaging was performed to determined uptake in tumor and other organs. The mice were kept warm by a heating pad during acquisition. For biodistribution studies, the mice were injected with the radiotracer as described above. The mice was anesthetized with 2% isoflurane inhalation, and euthanized by CO2 inhalation. Blood was withdrawn immediately from the heart, and the organs/tissues of interest were collected. The collected organs/tissues were weighed and counted using a Perkin Elmer (Waltham, Mass.) Wizard2 2480 gamma counter. The uptake in each organ/tissue was normalized to the injected dose using a standard curve, and expressed as the percentage of the injected dose per gram of tissue (% ID/g).
(§4) LNCaP cell line was obtained from ATCC (LNCaP clone FGC, CRL-1740). […] Cells were cultured in PRM I 1640 medium supplemented with 10% FBS, penicillin (100 U/mL) and streptomycin (100 μg/mL) at 37° C. in a humidified incubator containing 5% CO2. Cells grown to 80-90% confluence were then washed with sterile phosphate-buffered saline (1× PBS pH 7.4), and collected by trypsinization. The collected cell concentration was counted with a Hausser Scientific (Horsham, Pa.) Hemacytometer.
(§5) Imaging and biodistribution experiments were performed using NODSCID 1L2RγKO male mice. Mice were anesthetized by inhalation with 2% isoflurane in oxygen, and implanted subcutaneously with 1×10^7 LNCaP cells behind left shoulder. Mice were imaged or used in biodistribution studies when the tumor grew up to reach 5-8 mm in diameter during 5-6 weeks.
(§6) PET imaging experiments were conducted using Siemens Inveon micro PET/CT scanner. Each tumor bearing mouse was injected 6-8 MBq of Ga-68 or F-18 labeled tracer through the tail vein under anesthesia (2% isoflurane in oxygen). The mice were allowed to recover and roam freely in their cage. After 50 min, the mice were sedated again with 2% isoflurane in oxygen inhalation and positioned in the scanner. A 10-min CT scan was conducted first for localization and attenuation correction after segmentation for reconstructing the PET images. Then, a 10-min static PET imaging was performed to determined uptake in tumor and other organs.
(§7) For biodistribution studies, the mice were injected with the radiotracer as described above.

[2] = in vivo; settings: male, NODSCID 1L2RγKO, mouse, iv, total radioactivity; for excreta dose per gram or mL at 1 h: Urine uptake
Procedure: as §1, §2, §3, §4, §5, §6, §7

Row | SMILES | Blood: Salivary ratio ([1]; mouse, in vivo) | Tumor: Blood ratio ([1]; mouse, in vivo) | Tumor: Kidney ratio ([1]; mouse, in vivo) | Tumor: Muscle ratio ([1]; mouse, in vivo) | Tumor: Salivary ratio ([1]; mouse, in vivo) | tissue uptake at 1 h ([2]; Adrenal glands uptake) | tissue uptake at 1 h ([2]; Blood uptake) | tissue uptake at 1 h ([2]; Bone uptake) | tissue uptake at 1 h ([2]; Brain uptake) | tissue uptake at 1 h ([2]; Fat uptake) | tissue uptake at 1 h ([2]; Heart uptake) | tissue uptake at 1 h ([2]; Intestine uptake) | tissue uptake at 1 h ([2]; Kidneys uptake) | tissue uptake at 1 h ([2]; Lacrimal uptake) | tissue uptake at 1 h ([2]; Liver uptake) | tissue uptake at 1 h ([2]; Lungs uptake) | tissue uptake at 1 h ([2]; Muscle uptake) | tissue uptake at 1 h ([2]; Pancreas uptake) | tissue uptake at 1 h ([2]; Salivary uptake) | tissue uptake at 1 h ([2]; Seminal uptake) | further results
1 | O=C(O)CN1CCN(CC(=O)O)CCN(CC(=O)NC[C@H]2CC[C@H](C(=O)N[C@@H](Cc3c4ccccc4cc4ccccc34)C(=O)NCCCC[C@H](NC(=O)N[C@@H](C[C@H](F)C(=O)O)C(=O)O)C(=O)O)CC2)CCN(CC(=O)O)CC1 [68Ga-HTK04040, metal not drawn] | 0.73 ± 0.06 | 20.4 ± 6.02 | 0.26 ± 0.08 | 43.2 ± 24.9 | 14.9 ± 4.40 | 2.68 ± 0.7 %ID/g | 0.94 ± 0.12 %ID/g | 0.18 ± 0.03 %ID/g | 0.25 ± 0.43 %ID/g | 0.6 ± 0.3 %ID/g | 0.88 ± 0.08 %ID/g | 0.53 ± 0.04 %ID/g | 76 ± 22.6 %ID/g | 0.06 ± 0.02 %ID/g | 0.94 ± 0.11 %ID/g | 2.01 ± 0.21 %ID/g | 0.64 ± 0.5 %ID/g | 0.61 ± 0.08 %ID/g | 1.29 ± 0.24 %ID/g | 0.51 ± 0.12 %ID/g | tissue uptake at 1 h ([2]; Spleen uptake): 2.58 ± 0.8 %ID/g; tissue uptake at 1 h ([2]; Stomach uptake): 0.23 ± 0.08 %ID/g; tissue uptake at 1 h ([2]; Tail uptake): 0.85 ± 0.54 %ID/g; tissue uptake at 1 h ([2]; Testes uptake): 0.74 ± 0.04 %ID/g; tissue uptake at 1 h ([2]; Thyroid uptake): 1.14 ± 0.14 %ID/g; tissue uptake at 1 h ([2]; Tumor uptake): 18.8 ± 5.06 %ID/g; excreta dose per gram or mL at 1 h [2]: 325 ± 66.8 %ID/g
2 | O=C(O)CCC[C@H](NC(=O)N[C@@H](CCCCNC(=O)[C@H](Cc1c2ccccc2cc2ccccc12)NC(=O)c1ccc(NC(=O)CN2CCN(CC(=O)O)CCN(CC(=O)O)CCN(CC(=O)O)CC2)cc1)C(=O)O)C(=O)O [68Ga-HTK04041, metal not drawn] | 3.96 ± 0.51 | 12.4 ± 3.62 | 2.06 ± 0.89 | 95.1 ± 33.7 | 48.2 ± 12.2 | 0.31 ± 0.05 %ID/g | 1 ± 0.09 %ID/g | 0.13 ± 0.02 %ID/g | 0.02 %ID/g | 0.11 ± 0.03 %ID/g | 0.3 ± 0.03 %ID/g | 0.19 ± 0.04 %ID/g | 6.82 ± 2.93 %ID/g | 0.11 ± 0.05 %ID/g | 0.37 ± 0.08 %ID/g | 0.82 ± 0.08 %ID/g | 0.13 ± 0.03 %ID/g | 0.15 ± 0.02 %ID/g | 0.26 ± 0.04 %ID/g | 1.68 ± 3.44 %ID/g | tissue uptake at 1 h ([2]; Spleen uptake): 0.4 ± 0.11 %ID/g; tissue uptake at 1 h ([2]; Stomach uptake): 0.07 ± 0.03 %ID/g; tissue uptake at 1 h ([2]; Tail uptake): 0.57 ± 0.05 %ID/g; tissue uptake at 1 h ([2]; Testes uptake): 0.31 ± 0.05 %ID/g; tissue uptake at 1 h ([2]; Thyroid uptake): 0.29 ± 0.04 %ID/g; tissue uptake at 1 h ([2]; Tumor uptake): 12.2 ± 3.15 %ID/g; excreta dose per gram or mL at 1 h [2]: 396 ± 92.3 %ID/g
3 | O=C(O)CCC[C@H](NC(=O)N[C@@H](CCCCNC(=O)[C@H](Cc1cccc(I)c1)NC(=O)[C@H]1CC[C@H](CNC(=O)CN2CCN(CC(=O)O)CCN(CC(=O)O)CCN(CC(=O)O)CC2)CC1)C(=O)O)C(=O)O [68Ga-HTK04053, metal not drawn] | 5.19 ± 1.73 | 16.8 ± 7.00 | 1.84 ± 1.26 | 93.7 ± 27.0 | 84.3 ± 32.1 | 0.12 ± 0.03 %ID/g | 0.29 ± 0.05 %ID/g | 0.04 ± 0.01 %ID/g | 0.01 %ID/g | 0.04 ± 0.01 %ID/g | 0.09 ± 0.02 %ID/g | 0.15 ± 0.03 %ID/g | 3.48 ± 2.39 %ID/g | 0.05 ± 0.01 %ID/g | 0.13 ± 0.07 %ID/g | 0.28 ± 0.04 %ID/g | 0.05 ± 0.01 %ID/g | 0.06 ± 0.02 %ID/g | 0.06 ± 0.02 %ID/g | 7.61 ± 12.5 %ID/g | tissue uptake at 1 h ([2]; Spleen uptake): 0.12 ± 0.03 %ID/g; tissue uptake at 1 h ([2]; Stomach uptake): 0.06 ± 0.04 %ID/g; tissue uptake at 1 h ([2]; Tail uptake): 0.2 ± 0.07 %ID/g; tissue uptake at 1 h ([2]; Testes uptake): 0.11 ± 0.02 %ID/g; tissue uptake at 1 h ([2]; Thyroid uptake): 0.09 ± 0.01 %ID/g; tissue uptake at 1 h ([2]; Tumor uptake): 4.96 ± 2.75 %ID/g; excreta dose per gram or mL at 1 h [2]: 523 ± 330 %ID/g
4 | O=C(O)CN1CCN(CC(=O)O)CCN(CC(=O)NC[C@H]2CC[C@H](C(=O)N[C@@H](Cc3c4ccccc4cc4ccccc34)C(=O)NCCCC[C@H](NC(=O)N[C@@H](C[C@H](F)C(=O)O)C(=O)O)C(=O)O)CC2)CCN(CC(=O)O)CC1 [HTK04040] |  |  |  |  |  |  |  |  |  |  |  |  |  |  |  |  |  |  |  |  | binding to PSMA (in words) ([1]; concluded from biodistribution): bind well to PSMA; kidney and salivary gland uptake (in words) ([1]; mouse, in vivo): much less kidney and salivary gland uptake; tissue uptake at 1 h ([2]; kidney uptake): 76 %ID/g
